Data set [1] concerns the target T1, ABCA1 (Mus musculus, UniProt P41233).
T1 construct: host or cells: J774 mouse macrophages stimulated with Cpt-cAMP
Briefly: ABCA1-mediated cholesterol efflux from cAMP-treated J774 macrophages. Type of data set: cell-based. As to conditions: mean ± SD. From the text: BHK cells stably transfected with an ABCA1 or ABCG1 expression vector that is mifepristone inducible and cells transfected with the same vector lacking the ABCA1 cDNA insert (mutant or mock-transfected) were generously provided by the late Dr. John F. Oram from the Department of Medicine, University of Washington, and were characterized and cultured as previously described. […] Mouse-derived peritoneal macrophages J774 were purchased from American Tissue Culture Collection (ATCC TIB-67, Cederlane, Burlington, Canada). For induction of ABCA1, BHK cells were incubated for 18–20 h with 10 nM mifepristone. J774 macrophages were stimulated with 0.3 mM Cpt-cAMP 8-(4-Chlorophenylthio)-cyclic adenosine monophosphate (Sigma). […]
All cell culture incubations were performed at 37 °C in a humidified 5% CO2. […] Media were collected, centrifuged at 3.000 g for 5min to remove cell debris, and counted for radioactivity. […] Further, 0.2 ml cells lysates were mixed with scintillation liquid and counted for radioactivity. […] Cholesterol efflux was calculated according to the following formula as the percentage of ^3H-cpm medium/(^3H-cpm medium + ^3H-cpm cells) x 100%. Efflux efficiency (Km) was calculated using the Michaelis-Menten equation (Graph-Pad Prism6 software) respectively (S1, S8 and S9 Figs.)

The target of data set [2] is ABCA1 (Homo sapiens, UniProt O95477). In words: Chemical cross-linking of ABCA1, dimer:monomer ratio (SDS-PAGE). Format: cell-based. Set-up: expressed in transfected cells; host or cells: BHK cells, stably transfected, induced with 10 nM mifepristone. Here is the method:
Supplementary file pone.0131997.s004.tif: S3 Fig Chemical cross-linking of ABCA1 in intact BHK cells expressing ABCA1. BHK cells in 100-mm diameter dishes were stimulated with 10 nM mifepristone for 18–20 h. BHK cells expressing ABCA1 (100 μg of total protein) in the presence of apo A-I or CS-6253 at same molarity (0.96 μM) were cross-linked or not with 500 μM DSP. Cells were then lysed at 4°C with lysis buffer containing 0.5% n-dodecylmaltoside in the presence of a protease inhibitor mixture followed by low speed centrifugation to remove cell debris. The supernatants were treated or not with 50 mM DTT for 30 min at 37°C and then separated by SDS-PAGE (4–22.5%) in duplicate. After electrophoresis, ABCA1 was detected by an anti-ABCA1 antibody. GAPDH was used as loading control. (TIF) Click here for additional data file. […]

“And” between values parts separate entries of the source, which are not always exact repeats. Identical values can stand only once.

T1 sequence (P41233 whole entry): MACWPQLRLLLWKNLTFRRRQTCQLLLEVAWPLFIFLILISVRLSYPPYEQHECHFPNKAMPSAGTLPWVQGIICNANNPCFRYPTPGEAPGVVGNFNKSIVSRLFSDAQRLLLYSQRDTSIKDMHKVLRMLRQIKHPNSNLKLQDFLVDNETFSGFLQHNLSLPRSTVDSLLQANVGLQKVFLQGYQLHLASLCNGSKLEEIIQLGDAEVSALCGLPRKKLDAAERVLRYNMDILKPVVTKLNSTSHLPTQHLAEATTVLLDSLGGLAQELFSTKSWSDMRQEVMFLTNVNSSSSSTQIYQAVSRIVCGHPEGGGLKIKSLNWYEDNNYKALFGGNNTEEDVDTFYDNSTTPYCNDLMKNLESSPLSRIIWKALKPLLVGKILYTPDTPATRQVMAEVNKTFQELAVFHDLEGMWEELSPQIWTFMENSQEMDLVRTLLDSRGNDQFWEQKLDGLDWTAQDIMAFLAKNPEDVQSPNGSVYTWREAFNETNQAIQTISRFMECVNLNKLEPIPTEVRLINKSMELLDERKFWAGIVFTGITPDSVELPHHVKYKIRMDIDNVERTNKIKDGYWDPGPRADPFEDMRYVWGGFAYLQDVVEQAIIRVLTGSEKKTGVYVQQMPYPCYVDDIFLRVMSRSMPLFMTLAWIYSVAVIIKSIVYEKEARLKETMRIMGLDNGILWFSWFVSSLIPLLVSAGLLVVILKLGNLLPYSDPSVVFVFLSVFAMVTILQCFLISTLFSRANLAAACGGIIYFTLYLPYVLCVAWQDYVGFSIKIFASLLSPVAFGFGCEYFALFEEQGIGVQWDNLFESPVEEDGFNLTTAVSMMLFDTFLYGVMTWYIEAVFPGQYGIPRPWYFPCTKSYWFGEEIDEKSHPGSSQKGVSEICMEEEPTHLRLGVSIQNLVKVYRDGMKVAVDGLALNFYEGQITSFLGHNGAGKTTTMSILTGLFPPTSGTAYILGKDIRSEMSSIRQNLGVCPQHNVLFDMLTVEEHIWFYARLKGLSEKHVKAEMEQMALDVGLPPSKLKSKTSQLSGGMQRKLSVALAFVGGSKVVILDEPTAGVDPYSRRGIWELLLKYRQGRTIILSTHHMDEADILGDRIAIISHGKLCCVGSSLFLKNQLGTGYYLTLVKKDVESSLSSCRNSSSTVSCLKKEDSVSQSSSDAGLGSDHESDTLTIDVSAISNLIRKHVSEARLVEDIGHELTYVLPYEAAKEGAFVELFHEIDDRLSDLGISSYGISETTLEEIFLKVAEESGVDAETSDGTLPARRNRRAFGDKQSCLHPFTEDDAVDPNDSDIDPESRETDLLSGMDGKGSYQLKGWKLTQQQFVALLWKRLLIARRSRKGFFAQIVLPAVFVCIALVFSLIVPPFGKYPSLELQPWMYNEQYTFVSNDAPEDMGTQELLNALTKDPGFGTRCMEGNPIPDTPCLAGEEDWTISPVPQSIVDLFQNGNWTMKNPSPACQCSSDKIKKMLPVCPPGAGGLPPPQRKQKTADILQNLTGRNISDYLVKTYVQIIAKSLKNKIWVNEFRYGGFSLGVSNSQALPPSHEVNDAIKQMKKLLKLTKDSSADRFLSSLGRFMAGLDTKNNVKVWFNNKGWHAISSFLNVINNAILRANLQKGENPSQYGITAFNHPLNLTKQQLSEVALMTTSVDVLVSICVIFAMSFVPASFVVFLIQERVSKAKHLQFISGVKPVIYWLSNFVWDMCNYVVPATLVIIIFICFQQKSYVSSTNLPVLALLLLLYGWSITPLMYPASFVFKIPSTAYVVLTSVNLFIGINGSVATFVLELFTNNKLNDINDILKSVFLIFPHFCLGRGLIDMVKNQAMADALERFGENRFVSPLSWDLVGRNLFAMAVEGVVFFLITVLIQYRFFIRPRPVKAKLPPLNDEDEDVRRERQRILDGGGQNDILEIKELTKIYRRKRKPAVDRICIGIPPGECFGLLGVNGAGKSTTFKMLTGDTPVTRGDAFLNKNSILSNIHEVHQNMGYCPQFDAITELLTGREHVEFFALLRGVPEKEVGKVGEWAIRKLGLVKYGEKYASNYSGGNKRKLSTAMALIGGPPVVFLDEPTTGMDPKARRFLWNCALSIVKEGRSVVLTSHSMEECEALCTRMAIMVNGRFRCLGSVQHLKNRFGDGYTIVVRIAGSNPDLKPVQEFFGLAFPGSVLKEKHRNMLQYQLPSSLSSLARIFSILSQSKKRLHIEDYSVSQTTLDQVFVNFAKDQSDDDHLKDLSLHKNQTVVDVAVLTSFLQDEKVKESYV
ABCA1 (Homo sapiens, UniProt O95477), sequence (O95477 whole entry): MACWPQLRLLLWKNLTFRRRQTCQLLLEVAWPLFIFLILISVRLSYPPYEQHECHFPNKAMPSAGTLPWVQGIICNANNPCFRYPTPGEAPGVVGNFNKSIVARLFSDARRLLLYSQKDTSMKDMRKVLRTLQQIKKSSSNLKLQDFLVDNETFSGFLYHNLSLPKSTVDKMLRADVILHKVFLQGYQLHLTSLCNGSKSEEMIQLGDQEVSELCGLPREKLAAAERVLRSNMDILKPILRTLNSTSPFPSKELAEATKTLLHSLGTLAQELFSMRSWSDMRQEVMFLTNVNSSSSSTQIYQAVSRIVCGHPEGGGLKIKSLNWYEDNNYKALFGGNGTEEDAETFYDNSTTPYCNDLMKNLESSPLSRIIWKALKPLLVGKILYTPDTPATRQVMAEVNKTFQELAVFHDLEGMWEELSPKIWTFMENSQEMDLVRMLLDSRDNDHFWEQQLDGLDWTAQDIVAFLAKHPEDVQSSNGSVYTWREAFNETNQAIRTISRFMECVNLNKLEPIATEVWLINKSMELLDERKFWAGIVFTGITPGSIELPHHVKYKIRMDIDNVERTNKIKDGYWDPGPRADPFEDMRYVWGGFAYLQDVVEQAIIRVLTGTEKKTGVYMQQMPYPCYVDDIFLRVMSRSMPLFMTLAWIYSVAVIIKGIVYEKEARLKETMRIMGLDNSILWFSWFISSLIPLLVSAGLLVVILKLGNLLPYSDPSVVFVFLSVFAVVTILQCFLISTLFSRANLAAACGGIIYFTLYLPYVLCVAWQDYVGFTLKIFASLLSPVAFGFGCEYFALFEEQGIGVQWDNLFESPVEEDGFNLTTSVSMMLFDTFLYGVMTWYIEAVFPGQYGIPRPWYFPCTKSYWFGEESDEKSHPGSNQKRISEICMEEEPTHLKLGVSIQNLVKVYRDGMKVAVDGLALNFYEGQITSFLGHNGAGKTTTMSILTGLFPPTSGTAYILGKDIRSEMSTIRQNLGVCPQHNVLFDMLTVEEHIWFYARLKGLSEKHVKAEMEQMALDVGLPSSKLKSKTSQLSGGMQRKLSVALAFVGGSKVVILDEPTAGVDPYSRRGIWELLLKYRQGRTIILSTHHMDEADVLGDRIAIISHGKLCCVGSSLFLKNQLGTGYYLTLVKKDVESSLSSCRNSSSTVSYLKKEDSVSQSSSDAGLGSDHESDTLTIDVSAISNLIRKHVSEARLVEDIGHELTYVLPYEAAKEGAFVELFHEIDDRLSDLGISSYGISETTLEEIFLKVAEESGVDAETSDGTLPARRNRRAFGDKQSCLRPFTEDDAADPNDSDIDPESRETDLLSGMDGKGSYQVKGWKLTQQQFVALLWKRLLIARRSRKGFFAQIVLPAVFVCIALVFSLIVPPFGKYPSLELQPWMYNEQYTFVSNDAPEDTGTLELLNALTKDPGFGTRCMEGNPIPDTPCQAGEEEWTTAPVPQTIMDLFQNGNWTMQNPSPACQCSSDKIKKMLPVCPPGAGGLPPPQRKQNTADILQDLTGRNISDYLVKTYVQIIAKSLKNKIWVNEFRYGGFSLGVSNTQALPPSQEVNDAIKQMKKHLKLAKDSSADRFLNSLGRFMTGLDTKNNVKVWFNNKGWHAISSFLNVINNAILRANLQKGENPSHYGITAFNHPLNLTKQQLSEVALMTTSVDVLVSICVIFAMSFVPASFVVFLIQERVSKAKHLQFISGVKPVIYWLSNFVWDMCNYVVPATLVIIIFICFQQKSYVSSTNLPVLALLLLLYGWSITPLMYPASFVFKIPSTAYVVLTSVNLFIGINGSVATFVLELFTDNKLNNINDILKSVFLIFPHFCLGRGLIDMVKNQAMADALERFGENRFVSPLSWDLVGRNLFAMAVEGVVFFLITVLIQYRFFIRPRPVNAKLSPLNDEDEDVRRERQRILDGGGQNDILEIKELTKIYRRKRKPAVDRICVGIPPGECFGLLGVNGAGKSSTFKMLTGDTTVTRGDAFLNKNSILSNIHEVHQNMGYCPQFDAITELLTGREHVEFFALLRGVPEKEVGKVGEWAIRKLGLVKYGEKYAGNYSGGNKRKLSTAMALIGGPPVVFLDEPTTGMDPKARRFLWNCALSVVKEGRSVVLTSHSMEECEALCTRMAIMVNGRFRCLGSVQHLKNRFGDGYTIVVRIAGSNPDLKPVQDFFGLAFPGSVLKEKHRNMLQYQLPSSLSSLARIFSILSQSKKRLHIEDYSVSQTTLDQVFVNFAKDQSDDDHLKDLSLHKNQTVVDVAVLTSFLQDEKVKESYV

As for apolipoprotein A-I [apo A-I], the “Km, cholesterol efflux” value with ABCA1 [1] (6 h) is 3.82±1.81 μg/ml and 0.15±0.05 μM. Moreover, the “Vmax, cholesterol efflux” value in the data set with ABCA1 [1] came to 6.90±1.06 % efflux/6h. For the same substance, the “ratio of ABCA1 dimer: monomer” value with ABCA1 [2] (0.93 μM (appendix) / 0.96 μM (S3 Fig), DSP 500 μM, densitometry) is reported as 69.22%±0.25. The “effect on ABCA1 oligomerization (in words)” value with ABCA1 [2] (BHK-ABCA1, DSP cross-linking) was “causes ABCA1 dimer formation”.

Source of the values: PMC4514675, “Novel Apo E-Derived ABCA1 Agonist Peptide (CS-6253) Promotes Reverse Cholesterol Transport and Induces Formation of preβ-1 HDL In Vitro” (PLoS ONE, 2015).
